Biological target: hCXCR3 (human) (UniProt P49682)
Assay: cell-based or functional assay

Sequence of hCXCR3 (human) (P49682 whole entry): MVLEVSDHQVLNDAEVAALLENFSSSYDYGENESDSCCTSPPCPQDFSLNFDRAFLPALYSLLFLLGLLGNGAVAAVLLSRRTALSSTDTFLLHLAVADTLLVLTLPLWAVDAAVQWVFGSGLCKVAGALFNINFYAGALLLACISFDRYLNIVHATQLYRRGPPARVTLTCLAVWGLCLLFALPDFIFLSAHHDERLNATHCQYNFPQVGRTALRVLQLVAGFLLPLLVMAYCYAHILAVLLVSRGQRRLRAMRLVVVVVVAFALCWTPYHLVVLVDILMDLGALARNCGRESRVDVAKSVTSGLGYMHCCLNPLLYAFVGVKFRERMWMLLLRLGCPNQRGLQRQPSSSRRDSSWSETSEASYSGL

B1: recombinant native ITAC (ligand, UniProt O14625 22-94, looked up)
chain: FPMFKRGRCLCIGPGVKAVKVADIEKASIMYPSNNCDKIEVIITLKENKGQRCLNPKSKQARLIIKKVERKNF
  EC50, agonist activity in an Aequorin assay: 0.7 nM

Reference: patent US20180038857A1
